Laboratory results taken from PMC3223204, “Implantation Serine Proteinase 1 Exhibits Mixed Substrate Specificity that Silences Signaling via Proteinase-Activated Receptors” (PLoS ONE, 2011).

Legend:
[1] = target: T1, rat PAR4 (Rattus norvegicus, UniProt Q920E0); test: Calcium signaling assay, PAR4 activation/disarming in rat platelets; type: cell-based
T1 construct: rat platelets that express only functional PAR4 but neither PAR1 nor PAR2; endogenous in cells; host or cells: rat platelets from platelet-rich plasma
T1 sequence (Q920E0 17-395): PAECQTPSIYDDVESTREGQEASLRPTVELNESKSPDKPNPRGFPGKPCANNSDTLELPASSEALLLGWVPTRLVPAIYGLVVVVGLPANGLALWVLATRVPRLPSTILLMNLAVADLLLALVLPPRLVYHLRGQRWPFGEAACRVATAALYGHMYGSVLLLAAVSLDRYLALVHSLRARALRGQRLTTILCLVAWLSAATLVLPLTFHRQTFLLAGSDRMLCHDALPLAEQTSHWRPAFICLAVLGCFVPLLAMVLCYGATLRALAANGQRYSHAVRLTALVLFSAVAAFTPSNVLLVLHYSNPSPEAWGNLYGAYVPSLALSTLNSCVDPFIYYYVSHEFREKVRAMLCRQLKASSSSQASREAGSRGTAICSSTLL
Method: (§1) Cell lines (grown to about 85% confluence and disaggregated with calcium-free isotonic phosphate-buffered saline containing 0.2 mM EDTA) and rat platelets (harvested from platelet-rich anti-coagulated plasma) were prepared and used as previously described. Cells were incubated for 25 min at room temperature with Fluo-3 acetoxymethyl ester (final concentration, 22 µM) along with 0.4 mM sulfinpyrazone. Cells were washed twice by centrifugation (using the following buffer without calcium) and resuspended in the calcium signaling buffer: 150 mM NaCl, 3 mM KCl, 1.5 mM CaCl2, 20 mM HEPES, 10 mM dextrose, and 0.25 mM sulfinpyrazone, pH 7.4.
(§2) Fluorescence was measured at 24 °C with an excitation wavelength of 480 nm and an emission recorded at 530 nm using an Aminco Bowman Series 2 Luminescence spectrometer (ThermoSpectronic Model FA354, Spectronic Unicam, Rochester, NY). The fluorescence signals caused by the addition of test agonists (trypsin, PAR-activating peptide or rISP1, added to 2 ml of a cell suspension of ~3 x 10^5 cells/ml) were compared with the fluorescence peak height yielded by replicate cell suspensions treated with 2 µM ionophore A23187. This concentration of A23187 was at the plateau of its concentration-response curve for a fluorescence response in Fluo-3-loaded cultured cells. Under these conditions, the calculated values for intracellular calcium in the HEK and KNRK cells were [picture] 30 nM under basal conditions and about 340 nM upon exposure to A23187 [8, 9].
Previous work has shown that the fluorescence response of a cell preparation, as a percentage relative to the signal generated by 2 µM A23187, is a valid reference standard for the comparative determination of calcium signals for all PAR agonists. The cellular calcium response was therefore recorded as a percentage of the response generated by 2 µM ionophore A23187 [6]. Concentration-effect curves for recombinant enzyme (rISP1) were obtained by measuring the calcium signals generated by measuring the effects (receptor activation or disarming) of increasing enzyme concentrations in replicate cell suspensions (2 ml).
Receptor activation was monitored as an enzyme-stimulated increase in fluorescence emission (E530). As outlined in the following paragraph, receptor disarming or disabling was ascertained by the ability of ISP1 pre-treatment of the cells to abrogate the calcium signal caused by the subsequent addition of either a PAR-activating enzyme (thrombin for PARs 1 & 4; trypsin for PAR2) or a PAR-activating peptide (a reduced response to the activating peptide reflects receptor disabling). […]

[2] = target: T2, thrombin (Homo sapiens, UniProt P00734); test: Effect of ISP1 on enzyme activity of thrombin; type: biochemical; settings: data not shown
T2 construct: High activity human thrombin (cat. number 605195, lot B37722; 3,186 NIH units/mg) was from Calbiochem; purchased Calbiochem 605195

[3] = target: T3, human PAR1 (Homo sapiens, UniProt P25116); test: Calcium signaling assay, PAR1 activation/disarming in HEK cells; type: cell-based
T3 construct: The human HEK293 cells, that constitutively express both PAR1 and PAR2; endogenous in cells; host or cells: HEK293 (expressing SV40 T-antigen)
T3 sequence (P25116 22-425): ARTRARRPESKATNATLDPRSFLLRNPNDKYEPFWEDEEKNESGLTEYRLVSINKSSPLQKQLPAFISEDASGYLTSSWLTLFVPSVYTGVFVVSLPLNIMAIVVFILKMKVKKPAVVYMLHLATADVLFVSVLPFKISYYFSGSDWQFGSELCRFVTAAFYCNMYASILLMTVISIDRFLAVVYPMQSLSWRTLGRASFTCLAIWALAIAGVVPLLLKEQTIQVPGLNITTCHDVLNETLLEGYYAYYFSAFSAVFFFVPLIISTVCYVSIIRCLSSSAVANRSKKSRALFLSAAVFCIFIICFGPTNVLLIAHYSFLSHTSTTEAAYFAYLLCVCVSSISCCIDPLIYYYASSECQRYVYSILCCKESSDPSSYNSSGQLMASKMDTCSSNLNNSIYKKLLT
Source text: The Kirsten virus-transformed normal rat kidney (KNRK) epithelial cell line expressing wild-type rat PAR2 (KNRKrPAR2), validated previously for studies of receptor activation was used to evaluate the PAR2-regulating properties of the ISP1 by the methods described previously. Human embryonic kidney cells (HEK293) that express the SV40 T-antigen were kindly provided by Dr. Jonathan Lytton, University of Calgary, Faculty of Medicine, Calgary (Alberta) Canada. The human HEK293 cells, that constitutively express both PAR1 and PAR2, were grown under similar conditions as described for the KNRK cells, but in the absence of geneticin, as outlined for the PAR-mediated calcium signaling procedure described previously. All cells were sub-cultured by dissociation in an isotonic EDTA/saline solution, pH 7.4, without the use of trypsin, to avoid cleavage of PARs.
as §1
as §2, with “30 nM under basal conditions and about 340 nM upon exposure to A23187 [8, 9].” left out
Previous work has shown that the fluorescence response of a cell preparation, as a percentage relative to the signal generated by 2 µM A23187, is a valid reference standard for the comparative determination of calcium signals for all PAR agonists. The cellular calcium response was therefore recorded as a percentage of the response generated by 2 µM ionophore A23187 [6]. […]
Receptor activation was monitored as an enzyme-stimulated increase in fluorescence emission (E530). […]

[4] = pre-treatment with 5 Units/ml ISP1, then thrombin (0.5 units/ml)
[5] = pre-treatment with 20 units ISP1/ml, then thrombin (0.5 units/ml)

B1: ISP1: recombinant implantation serine proteinase 1 expressed in Pichia pastoris, also known as Mouse Prss28 (protein, UniProt Q924N9 27-274, looked up)
Serine protease 28: KPVGIVGGQRTPPGKWPWQVSLRMYSYEVNSWVHICGGSIIHPQWILTAAHCIQSQDADPAVYRVQVGEVYLYKEQELLNISRIIIHPDYNDVSKRFDLALMQLTALLVTSTNVSPVSLPKDSSTFDSTDQCWLVGWGNLLQRVPLQPPYQLHEVKIPIQDNKSCKRAYRKKSSDEHKAVAIFDDMLCAGTSGRGPCFGDSGGPLVCWKSNKWIQVGVVSKGIDCSNNLPSIFSRVQSSLAWIHQHIQ
modifications: recombinant, Pichia pastoris-expressed
notes: recombinant implantation serine proteinase 1 expressed in Pichia pastoris, also known as Mouse Prss28
- Cellular response to PAR4-activating peptide after ISP1 pre-treatment ([1]; AYPGKF-NH2 (100 µM), concentration-dependent): diminished
- Activation of a calcium signal via PAR4 ([1]; enzyme alone): did not activate a calcium signal
- residual PAR4 activity triggered by thrombin [1, 4]: ~75%
- residual PAR4 activity (% of control) [1, 5]: ~20%
- Inhibitory effect on enzyme activity of thrombin [2]: doesn't have any inhibitory effect
- Cellular response to PAR1-activating peptide after ISP1 pre-treatment ([3]; TFLLR-NH2 (5 µM), concentration-dependent): diminished
- Activation of a calcium signal via PAR1 ([3]; enzyme alone): did not activate a calcium signal
- residual PAR1 activity [3, 4]: 20%
- residual PAR1 activity [3, 5]: eliminate PAR1 activity completely
